What was measured:
[1] = system: tibialis anterior muscle atrophy; assay: In vivo tibia muscles denervation assay; settings: mice, plasmid electroporation in hind legs, 14 days post-denervation
Method: Vectors containing TRX, the R5G42, C7 or N9 aptamers or NaCl (control) were electroporated in mice hind legs (day 1) and an unilateral abolition of the motor innervation of the tibia muscles of the left hind leg was performed (day 3). After euthanasia of the mice (day 17) the tibialis anterior area was measured. Without denervation, the muscle area is relatively stable from one experiment to another (6.532.412+/−351.070, or 5.3% of variation). With denervation a reduced atrophy effect of about 27% and 48% is observed with aptamers R5G42 and N9 as compared to the atrophy effect obtained using the NaCl control (See FIGS. 19-20). The 100% of atrophy effect was evaluated using the data obtained with the NaCl control.
Another group of mice hind legs were electroporated after the injection of vectors containing TRX, the R5G42, C7 or N9 aptamers or with NaCl (control) at day 1. A unilateral abolition of the motor innervation of the tibia muscles of the left hind leg was performed at day 3 in order to induce a muscular atrophy. The mice were then euthanised at day 17, i.e. 14 days after sciatic denervation of the left hind leg. […] With denervation a reduced atrophy effect of about 27% and 48% is observed with aptamers R5G42 and N9 as compared to the atrophy effect obtained using the NaCl control (FIG. 18). […]

[2] = system: CNA; assay: Yeast two-hybrid assay; assay type: binding, human; settings: point mutant
Text: (A) Yeast two-hybrid mating assay. TB50α yeast were co-transformed with pSH18-34T (bearing a lacZ reporter gene) and plasmids directing the expression of LexA alone or in fusion with peptide aptamers R5G42, R7G44 or R5G52. MB210a yeast were transformed with the selected cDNA library plasmids directing the expression of CNAβ, CNAγ, and NS5ATP2 truncated proteins. To obtain negative controls, MB210a yeast were also transformed with the empty prey plasmid (pJG4-5) and with pJG4-5 directing the expression of Ras and FKBP12 prey proteins. To obtain a positive control, MB210a yeast were transformed with pJG4-5 directing the expression of RG22 peptide aptamer prey fusion protein that interacts with LexA in the context of most LexA fusion proteins.
The inventors set out to map the R5G42 binding site on CNA. The CNA interacting clones selected in the yeast two-hybrid experiments corresponded to the carboxy-terminal regions of the beta and gamma isoforms, encompassing the calmodulin-binding domain and the auto-inhibitory domain (see FIG. 3B). […] The LexA-R5G52 bait protein may thus not be properly expressed and/or folded in this yeast two-hybrid setting.
The inventors explored the ability of R5G42 mutants having a one amino acid change as compared to R5G42, to bind to CNA beta and gamma C-Terminal fragments (FIG. 3b) and to NS5A-TP2. To this end, they proceeded to yeast-two hybrid assays as in example 3. CNA beta and gamma C-Terminal fragments (FIG. 3b) and NS5A-TP2 were cloned in three different plasmids (pSH18-34, pJK103 and pRB18-40), which differed from each other in the level of sensitivity of their promoter to the bait/prey complex formation, pSH18-34 having the highest sensitivity and pRB18-40 having the lowest.
The 5′ end of RH6 (upper case) matches part of the HA epitope tag and the 5′ ends of RH4, RH3 and RH7 (upper case) match the 5′ extremity of the ADH terminator. The PCR reactions was performed using pCMV-SPORT6-CnAβ as a template. CnAβCter Δ1, Δ2, CaM were constructed by combining oligonucleotides RH6/RH4, RH6/RH3, RH6/RH7, respectively. […]

B1: N9: R5G42 mutant having a one amino acid change (SEQ ID 33) (protein)
chain: MVKQIESKTAFQEALDAAGDKLVVVDFSAAWCGPSAVTFAVCALGPCKMIKPFFHSLSEKYSNVIFLEVDVDDCQDVASECEVKCMPTFQFFKKGQKVGEFSGANKEKLEATINELV
modifications: Aptamer R5G42 mutant N9
reduced atrophy effect as compared to the NaCl control (tibialis anterior area) [1]: ~48% | two hybrid interaction phenotype against CNA compared to R5G42 [2]: dramatic reduction
